This series concerns the molecule itself. Put plainly: western blot of cell lysates. (In general: Immunoblotting shows a protein as a band on a membrane.)

B1: serine racemase (enzyme, rat (endogenous in primary microglia), UniProt Q76EQ0 1-333, looked up)
chain: MCAQYCISFADVEKAHLNIQDSVHLTPVLTSSILNQIAGRNLFFKCELFQKTGSFKIRGALNAIRGLIPDTLEGKPKAVVTHSSGNHGQALTYAAKLEGIPAYIVVPQTAPNCKKLAIQAYGASIVYSEPSDESRENVAQRIIQETEGILVHPNQEPAVIAGQGTIALEVLNQVPLVDALVVPVGGGGMVAGIAITIKTLKPSVKVYAAEPSNADDCYQSKLKGELTPNLHPPETIADGVKSSIGLNTWPIIRDLVDDVFTVTEDEIKYATQLVWERMKLLIEPTAGVGLAAVLSQHFQTVSPEVKNICIVLSGGNVDLTSLSWVKQAERPAP
As to B1, the “stoichiometry N” value worked out at 2.

As usually defined, the stoichiometry N is the number of molecules, sites or subunits per partner or assembly.

These data come from paper PMC483052 (Journal of Neuroinflammation, 2004).
